Data from publication PMC11900802.

Columns and labels:
[1] = immunofluorescence, nuclear FOXD1; conditions: glycan lost
Western blot of FOXD1 = conditions: glycan lost; control: vector control

B1: FOXD1: tunicamycin (protein)
parent chain: MTLSTEMSDASGLAEETDIDVVGEGEDEEDEEEEDDDEGGGGGPRLAVPAQRRRRRRSYAGEDELEDLEEEEDDDDILLAPPAGGSPAPPGPAPAAGAGAGGGGGGGGAGGGGSAGSGAKNPLVKPPYSYIALITMAILQSPKKRLTLSEICEFISGRFPYYREKFPAWQNSIRHNLSLNDCFVKIPREPGNPGKGNYWTLDPESADMFDNGSFLRRRKRFKRQPLLPPNAAAAESLLLRGAGAAGGAGDPAAAAALFPPAPPPPPHAYGYGPYGCGYGLQLPPYAPPSALFAAAAAAAAAAAFHPHSPPPPPPPHGAAAELARTAFGYRPHPLGAALPGPLPASAAKAGGPGASALARSPFSIESIIGGSLGPAAAAAAAAQAAAAAQASPSPSPVAAPPAPGSSGGGCAAQAAVGPAAALTRSLVAAAAAAASSVSSSAALGTLHQGTALSSVENFTARISNC
- localisation_or_trafficking ([1]; control: untreated): decreases

B2: FOXD1: GEM+TM (protein)
parent chain: B1 parent chain
- localisation_or_trafficking ([1]; control: GEM alone): decreases

B3: FOXD1: ALG3 knockdown (protein)
parent chain: B1 parent chain
- localisation_or_trafficking ([1]; control: vector control): decreases
- expression_or_secretion (Western blot of FOXD1): decreases
